To fix the notation:
B1: Ribonuclease, P00648 (parent)
chain: MMKMEGIALKKRLSWISVCLLVLVSAAGMLFSTAAKTETSSHKAHTEAQVINTFDGVADYLQTYHKLPDNYITKSEAQALGWVASKGNLADVAPGKSIGGDIFSNREGKLPGKSGRTWREADINYTSGFRNSDRILYSSDWLIYKTTDHYQTFTKIR

The variants in this data set derive from B1. Conditions: Bacillus amyloliquefaciens; pH 6.3; 25 °C; Urea; Fluorescence; MES 50 micro M; reversible: yes; structure 1BNI; whole UniProt chain shown.
Consider T53A, for which the “ddG of mutation (higher = less stable)” value is 2.15 kcal/mol.
Regarding T53G, the “ddG of mutation (higher = less stable)” value is 1.21 kcal/mol.
In the case of N131A it was 2.02 kcal/mol.
In the case of Y125F it was 1.35 kcal/mol.
In the case of S138A it was 1.94 kcal/mol; in that of I72V, 1.12 kcal/mol.
In the case of I51V, the “ddG of mutation (higher = less stable)” value came out at 0.67 kcal/mol.
For I123V, the “ddG of mutation (higher = less stable)” value is 0.82 kcal/mol.
In the case of I156V it was 0.76 kcal/mol; in that of Y60A Y64A, 5 kcal/mol.
Under T152V stands 2.25 kcal/mol; under L61A, 4.32 kcal/mol.
Turning to N105A, the “ddG of mutation (higher = less stable)” value was 2.17 kcal/mol.
In the case of Y64A it was 2.43 kcal/mol.
On to K109R, for which the “ddG of mutation (higher = less stable)” value was found to be 0.43 kcal/mol.
For T63S Y64A, the “ddG of mutation (higher = less stable)” value is 2.55 kcal/mol.
Under L80Q stands 1.3 kcal/mol; under T146V, 2.99 kcal/mol; under Y60A, 3.71 kcal/mol.
Under E76G stands 1.76 kcal/mol; under H65Q, 1.44 kcal/mol.
Under N124A stands 1.66 kcal/mol.
Take I135V: the “ddG of mutation (higher = less stable)” value is 1.34 kcal/mol.
Consider T73G, for which the “ddG of mutation (higher = less stable)” value was 1.42 kcal/mol.
In the case of T73A it was 1.93 kcal/mol.
With S139A, the “ddG of mutation (higher = less stable)” value turned out to be 2.8 kcal/mol.
In the case of V57A it was 3.4 kcal/mol; in that of V57T, 2.48 kcal/mol.
Under V92T stands 2.32 kcal/mol; under V92A, 1.72 kcal/mol.
In the case of N52A it was 1.85 kcal/mol; in that of I98V, 1.8 kcal/mol; in that of T63S, 1.68 kcal/mol.
As to T63R, the “ddG of mutation (higher = less stable)” value was -0.47 kcal/mol.
Under I102V stands 0.3 kcal/mol; under V83T, 1.15 kcal/mol.

The values above are taken from FireProtDB (doi:10.1016/0022-2836(92)90563-y).
